Measured values: the supplement of paper PMC9112550, “Optimization of the antimicrobial peptide Bac7 by deep mutational scanning” (BMC Biology, 2022)

Tested on: Escherichia coli TOP10
Experiment: shrunken log2 fold change of peptide-encoding DNA abundance (4.5 h post-induction vs induction); higher = less antimicrobial activity (less host growth inhibition)
Details: time post-induction: 4.5 h; library: site-saturation at positions 5, 18, 19, 20
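Note: peptides expressed intracellularly from a pBAD plasmid library in pooled LB shake-flask culture, induced with 0.3% L-arabinose, DNA abundance read by NGS, three biological replicates, DESeq2 with apeglm shrinkage.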

Sequence	shrunken log2 fold change
RRIRGRPPRLPRPRPRPCKDPRP	-0.0805
RRIRERPPRLPRPRPRPGTDPRP	8.37e-05
RRIRCRPPRLPRPRPRPHIKPRP	-0.788
RRIRPRPPRLPRPRPRPNNAPRP	-0.19
RRIRPRPPRLPRPRPRPRNEPRP	0.139
RRIRERPPRLPRPRPRPHTYPRP	-0.281
RRIRGRPPRLPRPRPRPNNYPRP	0.0781
RRIRQRPPRLPRPRPRPIQHPRP	0.14
RRIRMRPPRLPRPRPRPIQKPRP	0.0394
RRIRSRPPRLPRPRPRPFCTPRP	-0.375
RRIRNRPPRLPRPRPRPSYNPRP	-0.974
RRIRIRPPRLPRPRPRPEYAPRP	-0.0426
RRIRRRPPRLPRPRPRPSQHPRP	0.0591
RRIRIRPPRLPRPRPRPGEAPRP	-0.0281
RRIRRRPPRLPRPRPRPLVMPRP	0.164
RRIRERPPRLPRPRPRPENWPRP	-0.0337
RRIRERPPRLPRPRPRPYWFPRP	-1.02
RRIRWRPPRLPRPRPRPYKEPRP	-0.387
RRIRHRPPRLPRPRPRPNTFPRP	-0.00529
RRIRGRPPRLPRPRPRPTFLPRP	0.356
RRIRVRPPRLPRPRPRPDAPPRP	0.422
RRIRPRPPRLPRPRPRPDNLPRP	-0.35
RRIRHRPPRLPRPRPRPSQYPRP	-0.372
RRIRWRPPRLPRPRPRPFHWPRP	0.175
RRIRCRPPRLPRPRPRPEQSPRP	0.67

Sequence	shrunken log2 fold change
RRIRGRPPRLPRPRPRPNMSPRP	0.161
RRIRARPPRLPRPRPRPAIGPRP	0.714
RRIRARPPRLPRPRPRPSYRPRP	-0.228
RRIRTRPPRLPRPRPRPAMQPRP	-0.00933
RRIRERPPRLPRPRPRPVRRPRP	-0.172
RRIRNRPPRLPRPRPRPLSNPRP	-0.386
RRIRDRPPRLPRPRPRPLEYPRP	0.061
RRIRHRPPRLPRPRPRPQDDPRP	0.0649
RRIRWRPPRLPRPRPRPESSPRP	0.759
RRIRSRPPRLPRPRPRPGWAPRP	0.706
RRIRSRPPRLPRPRPRPMWHPRP	-0.332
RRIRGRPPRLPRPRPRPLMFPRP	0.603
RRIRKRPPRLPRPRPRPTYRPRP	0.647
RRIRMRPPRLPRPRPRPAVKPRP	0.0878
RRIRERPPRLPRPRPRPGWFPRP	-0.249
RRIRNRPPRLPRPRPRPFNNPRP	-0.193
RRIRARPPRLPRPRPRPHFRPRP	0.166
RRIRERPPRLPRPRPRPGHAPRP	0.304
RRIRVRPPRLPRPRPRPASEPRP	0.0395
RRIRKRPPRLPRPRPRPQGFPRP	-0.00783
RRIRERPPRLPRPRPRPFHVPRP	-0.854
RRIRFRPPRLPRPRPRPECVPRP	0.0137
RRIRWRPPRLPRPRPRPKHCPRP	0.0806
RRIRMRPPRLPRPRPRPNPAPRP	0.201
RRIRRRPPRLPRPRPRPWGTPRP	-0.0589

Sequence	shrunken log2 fold change
RRIRIRPPRLPRPRPRPGMFPRP	-0.284
RRIRIRPPRLPRPRPRPHKAPRP	-0.0133
RRIRYRPPRLPRPRPRPFLWPRP	-0.0621
RRIRNRPPRLPRPRPRPICHPRP	-0.1
RRIRNRPPRLPRPRPRPDMIPRP	-0.667
RRIRIRPPRLPRPRPRPNVWPRP	-0.309
RRIRCRPPRLPRPRPRPDDIPRP	0.0301
RRIRERPPRLPRPRPRPTDRPRP	0.0616
RRIRDRPPRLPRPRPRPRPHPRP	0.465
RRIRNRPPRLPRPRPRPYPQPRP	-0.138
RRIRIRPPRLPRPRPRPEVAPRP	0.218
RRIRARPPRLPRPRPRPMISPRP	0.501
RRIRERPPRLPRPRPRPVLYPRP	-0.00668
RRIRARPPRLPRPRPRPRQPPRP	0.75
RRIRVRPPRLPRPRPRPALHPRP	0.202
RRIRPRPPRLPRPRPRPEWTPRP	0.22
RRIRRRPPRLPRPRPRPRMNPRP	0.545
RRIRNRPPRLPRPRPRPTIWPRP	-0.23
RRIRERPPRLPRPRPRPFFCPRP	-0.0755
RRIRIRPPRLPRPRPRPKWAPRP	-0.105
RRIRPRPPRLPRPRPRPSLMPRP	-0.155
RRIRERPPRLPRPRPRPEPLPRP	-0.091
RRIRCRPPRLPRPRPRPETEPRP	-0.0921
RRIRCRPPRLPRPRPRPWMIPRP	-0.0852
RRIRHRPPRLPRPRPRPKVPPRP	0.0497

Sequence	shrunken log2 fold change
RRIRDRPPRLPRPRPRPAPAPRP	0.661
RRIRWRPPRLPRPRPRPGCEPRP	0.901
RRIRFRPPRLPRPRPRPGHCPRP	0.0688
RRIRLRPPRLPRPRPRPAKNPRP	0.00752
RRIRMRPPRLPRPRPRPSCNPRP	0.197
RRIRCRPPRLPRPRPRPTNTPRP	-0.364
RRIRKRPPRLPRPRPRPAFKPRP	-0.0132
RRIRFRPPRLPRPRPRPYFGPRP	-1.15
RRIRQRPPRLPRPRPRPWGEPRP	-0.0675
RRIRQRPPRLPRPRPRPTWNPRP	-0.0697
RRIRGRPPRLPRPRPRPNTAPRP	0.543
RRIRGRPPRLPRPRPRPWFWPRP	0.6
RRIRWRPPRLPRPRPRPRKRPRP	0.726
RRIRSRPPRLPRPRPRPFGGPRP	-0.0941
RRIRYRPPRLPRPRPRPMWPPRP	0.158
RRIRTRPPRLPRPRPRPTAQPRP	0.247
RRIRHRPPRLPRPRPRPFYLPRP	-0.915
RRIRQRPPRLPRPRPRPYSRPRP	-0.0567
RRIRDRPPRLPRPRPRPERPPRP	0.0268
RRIRQRPPRLPRPRPRPEEWPRP	0.0824
RRIRPRPPRLPRPRPRPHYWPRP	-0.41
RRIRNRPPRLPRPRPRPMEYPRP	-0.0389
RRIRMRPPRLPRPRPRPASYPRP	0.0757
RRIRFRPPRLPRPRPRPHFDPRP	-0.107
RRIRTRPPRLPRPRPRPWWLPRP	0.125

Sequence	shrunken log2 fold change
RRIRLRPPRLPRPRPRPPDSPRP	0.0353
RRIRQRPPRLPRPRPRPQAFPRP	-0.0347
RRIRLRPPRLPRPRPRPVGTPRP	0.00938
RRIRLRPPRLPRPRPRPQWGPRP	0.00618
RRIRHRPPRLPRPRPRPWWRPRP	0.219
RRIRFRPPRLPRPRPRPCMMPRP	-0.0025
RRIRWRPPRLPRPRPRPRPCPRP	0.514
RRIRNRPPRLPRPRPRPGYNPRP	-0.198
RRIRHRPPRLPRPRPRPRICPRP	0.0205
RRIRFRPPRLPRPRPRPQYQPRP	-0.118
RRIRDRPPRLPRPRPRPTYDPRP	-0.208
RRIRMRPPRLPRPRPRPFSTPRP	-0.0159
RRIRYRPPRLPRPRPRPWWFPRP	-0.195
RRIRGRPPRLPRPRPRPLIYPRP	0.105
RRIRSRPPRLPRPRPRPCKHPRP	-0.216
RRIRLRPPRLPRPRPRPESPPRP	0.124
RRIRDRPPRLPRPRPRPDDCPRP	-0.00963
RRIRTRPPRLPRPRPRPKTVPRP	-0.0654
RRIRCRPPRLPRPRPRPHAEPRP	0.315
RRIRVRPPRLPRPRPRPAHLPRP	-0.0953
RRIRERPPRLPRPRPRPSSEPRP	-0.137
RRIRGRPPRLPRPRPRPTYQPRP	0.169
RRIRYRPPRLPRPRPRPCMRPRP	-0.091
RRIRKRPPRLPRPRPRPSNLPRP	-0.0133
RRIRGRPPRLPRPRPRPFLNPRP	0.18
